PMC5494207

Key:
[1] = target: FliG 158C/214C mutant (E. coli) (UniProt P0ABZ1); assay: cross-linking
[2] = target: FliG 117C/166C protein (E. coli) (UniProt P0ABZ1); assay: cross-linking

| Substance | stoichiometry N [1] | stoichiometry N [2] |
| --- | --- | --- |
| FliG 158C/214C mutant (from UniProt P0ABZ1 1-331) (natural protein) | > 9 subunits |  |
| FliG 117C/166C protein (from UniProt P0ABZ1 1-331) (natural protein) |  | 8 subunits |
